Tests used:
[1] = test system: [H][C@@]12C[C@H](O)C3=C(C(=O)C[C@]4(C)[C@@]([H])([C@H](C)CC(=O)C[C@@H](C)C(=O)O)C[C@H](O)[C@@]34C)[C@@]1(C)CCC(=O)C2(C)C; test: purified protein; details: 10 mM UDP-glucose, 10 mM MgCl2, 50 mM Tris pH 8.0, 40 °C
Text: UPLC of GAA-15-O-beta-glucoside formation, Michaelis-Menten nonlinear fit on BsUGT489

[2] = substrate: [H][C@@]12C[C@H](O)C3=C(C(=O)C[C@]4(C)[C@@]([H])([C@H](C)CC(=O)C[C@@H](C)C(=O)O)C[C@H](O)[C@@]34C)[C@@]1(C)CCC(=O)C2(C)C; test: UPLC of GAA-15-O-beta-glucoside formation, Michaelis-Menten nonlinear fit; type: biochemical, Bacillus spizizenii; details: 10 mM UDP-glucose, 10 mM MgCl2, 50 mM Tris pH 8.0, 40 °C
Text: UPLC of GAA-15-O-beta-glucoside formation, Michaelis-Menten nonlinear fit on BsUGT398

BsUGT489 (Bacillus spizizenii)
Km [1]: 793.96 ± 124.09 µM
kcat [1]: 0.934 ± 0.0626 s⁻¹
kcat/Km [1]: 1180 ± 200 M⁻¹ s⁻¹

B1: BsUGT398 (Bacillus spizizenii str. W23) (protein)
chain: MKTVLILNFPAEGHVNPTLGITKAFADRGYDVHYISTEKYKERLEAVGATVHLHQDLLRTTPINIASPNGILDFLKIHIKTSLDILHIVKELSKSIQFDFVYYDKFGAGELVRDYLNIPGISSSASFLFGEEHLKILPLHPDSEVPLQLDKQCEDLLLEMKQNYGVSPENMVQFMNNKGELNVVYTSRYFQPESHRFGDEFLFIGPSFPKRAEKTDFPTDKLKDEKVIYISMGTVLDETEEFFNLCIDAFSDVKGKVVIAAGEKADLTKLKQAPENFIIASYVPQLEVLEQSDVFITHGGMNSVNEGIHFNVPLVVMPHDKDQPMVAQRLTELQAGYTVSKDHVTAQSLKHAVEEVLNNDRYKEGIQKINRSFQDCMNMEEVMERIDQFIEQRK
notes: recombinant purified, obtained from the authors' previous study; GT1 family
Km [2]: 90.71 ± 14.86 µM
kcat [2]: 0.14 ± 0.0051 s⁻¹
kcat/Km [2]: 1540 ± 259 M⁻¹ s⁻¹

From paper PMC6829469, “A Genome-Centric Approach Reveals a Novel Glycosyltransferase from the GA A07 Strain of Bacillus thuringiensis Responsible for Catalyzing 15-O-Glycosylation of Ganoderic Acid A” (International Journal of Molecular Sciences, 2019)
